{
  "source": "paper doi:10.1101/2023.05.17.541096",
  "about": "(bioRxiv, 2023)",
  "binders": {"B1": {"name": "human RAD51 (natural protein)", "chain": "MAMQMQLEANADTSVEEESFGPQPISRLEQCGINANDVKKLEEAGFHTVEAVAYAPKKELINIKGISEAKADKILAEAAKLVPMGFTTATEFHQRRSEIIQITTGSKELDKLLQGGIETGSITEMFGEFRTGKTQICHTLAVTCQLPIDRGGGEGKAMYIDTEGTFRPERLLAVAERYGLSGSDVLDNVAYARAFNTDHQTQLLYQASAMMVESRYALLIVDSATALYRTDYSGRGELSARQMHLARFLRMLLRLADEFGVAVVITNQVVAQVDGAAMFAADPKKPIGGNIIAHASTTRLYLRKGRGETRICKIYDSPCLPEAEAMFAINADGVGDAKD"}},
  "target": "T1, human FIGNL1ΔN (FIGNL1 without the N-terminal 284 aa) (human, UniProt Q6PIW4 285-674)",
  "T1 sequence": "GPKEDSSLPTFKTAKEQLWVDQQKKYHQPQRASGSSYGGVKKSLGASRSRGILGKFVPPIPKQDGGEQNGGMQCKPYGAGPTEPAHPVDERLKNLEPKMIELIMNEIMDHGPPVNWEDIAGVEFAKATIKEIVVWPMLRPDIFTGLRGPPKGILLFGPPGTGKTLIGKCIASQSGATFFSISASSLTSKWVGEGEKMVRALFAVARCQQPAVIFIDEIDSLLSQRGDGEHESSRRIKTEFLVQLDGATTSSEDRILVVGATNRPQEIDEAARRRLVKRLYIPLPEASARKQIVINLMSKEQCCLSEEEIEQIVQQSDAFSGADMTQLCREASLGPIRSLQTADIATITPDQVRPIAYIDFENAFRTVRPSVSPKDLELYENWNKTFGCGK",
  "test": "native gel or EMSA",
  "data": [
    {"binder": "B1", "values": [
      {"measurement": "binding result", "result": "binds"}
    ]}
  ]
}
